Measurements: article PMC11443517

How the values were obtained:
[1] = biological target: eDEN1-FRET-D10N construct lacking the C163A mutation; test: FRET or BRET; intramolecular FRET of 50 nM sensor (ratio of emission at 475 nm to 525 nm, excitation 440 nm) titrated with free or precursor Nedd8, binding competes with the reporter interaction; PBS pH 7.4, 0.05% Brij-35, 0.2 mg/mL ovalbumin, 1 mM DTT; single-site fit
[2] = biological target: eDEN1-FRET-D10N with the Wp2 domain replaced by Wp1; test: as above
eDEN1-FRET-D10N = test: as above
eDEN1-FRET = test: as above
eDEN1-nanoBiT = test: split reporter (BiFC, NanoBiT); intramolecular split nanoluciferase of purified eDEN1-nanoBiT, luminescence at 450 nm falls on binding; titration with the ligand; PBS pH 7.4, 0.2 mg/mL ovalbumin, 1 mM DTT, no Brij-35, 70 uM furimazine, 25 C, 96-well plate; single-site fit

Row | Substance | Kd [1] [µM] | Kd [2] [µM] | Kd (eDEN1-FRET-D10N) [µM] | Kd (eDEN1-FRET) [µM] | Kd (eDEN1-nanoBiT) [µM] | fold selectivity for free Nedd8 compared to precursor Nedd8 (eDEN1-FRET-D10N) [fold]
1 | free Nedd8 (from UniProt Q15843 1-76) (natural protein) | 50.5 | 6.03 | 0.324 | 7.61 | 3.2 | –
2 | precursor Nedd8 (from UniProt Q15843 1-81) (natural protein) | – | – | – | – | 270 | 444
